Source: PMC6104738

Molecular target: EBOV GP [change] (residues 1-636; strain Makona) (Zaire ebolavirus (EBOV), strain Makona)
Experiment: negative-stain electron microscopy; purified EBOV GP ΔTM alone

EBOV GP [change] (residues 1-636; strain Makona) (domain or fragment)
stoichiometry N: 3
